# Results reported in the DeepSol protein solubility set.
# Test: soluble on expression in E. coli; label from the status in PepcDB or PDB records
row,Sequence,soluble on expression in E. coli
1,MIDLAPLVRRLAGTPLAEWANGLQAQLDTKMSKGHGDLQRWQSALDALPALQPEKVDLTDSFTLETECDGETRTVLRKALLGLSPWRKGPFNVFGVHIDTEWRSDWKWSRVSPHLDLKGKRVLDVGCGNGYYQWRMLGAGADSVIGVDPNWLFFCQFQAMQRYLPDLPAWHLPFALEDLPANLEGFDTVFSMGVLYHRKSPIDHLLALKDCLVKGGELVMETLVIPGDVHQVLVPEDRYAQMRNVWFLPSVPALELWMRRAGFTDVRCVDVSHTTVEEQRSTEWMRFQSLGDYLDPNDHSKTVEGLPAPMRAVIVGRKP,not soluble
2,MIDNFWRELPRPFFVLAPMEDVTDVVFRHVVSEAGRPDVFFTEFTNSDSYCHPEGMKSVRGRLIFTEDEQPMVAHIWGDNPEYFRQMSIGMAELGFKGIDINMGCPVPNVASRGKGSGLILRPDVAAELIQAAKAGGLPVSVKTRLGFKELSEWEDWLTHIFKQDIANLSIHLRTREEMSQVDAHWELIPEIKKLRDRIAPNTLITINGDILDRKMGLELAEKYGIDGVMIGRGIFKNPFAFEKEPREHSSKEHLDLLRLQLDLQDQYAEVLPRSITGLHRFFKIYVKGFPGAAELRNQLMSTKSTDEVRALLDKFEASVDEAQDSETV,not soluble
3,MIDSIRVEGFRGLKELELSSLRRINVIVGRNNSGKSTLLEALSLFLGSSDPGTFGNVLHEILIWRGWYGIQTVDDLFYNGGDSFSISSTGKTLEALNSKHSLEFKLNGEPFYKIDRESIRRLASQAVLLARFSPKENFEFLTPLTFRRFGYAESLYSYAYERKVVKDSIKVLNEAYPEVEGFSPLLKEDNWVLYVETKYGVYPYYLMGEGFKSAMIISFLSSLLRDGVLLIDSAEAFHHPKSLKVMIQTLVRGSEKNNVQVFLTTHSLELLDLMLEMGRDGFVIYMKNVEGRIEVESIEFQRASELRESIGVDLRGFLEHHHHHH,soluble
4,MIEAVKPKVLATRLIPNVAPELAGQLGLAQYQRSIGMITCNIDDSTYVALDEATKKADVAVVYAKSFYAGAAHASGPRSGEVIGILAAANPADVRAGIDACIAYLENEAFFYSHDGGKTAWFPHTISSTGSYLSQIAGIPEGEPLAYLIAPPLEAIYGIDAALKAADVAMKVLYGPPTETNFGGALLTGTQSACRAACEDFQRAVIDVAENGMKY,not soluble
5,MIENHLYSLVTVVKYKLLPCLLAIFLTGCDRTEVTLSFTPEMASFSNEFDFDPLRGPVKDFTQTLMDEQGEVTKRVSGTLSEEGCFDSLELLDLENNTVVALVLDANYYRDAETLEKRVRLQGKCQLAELPSAGVSWETDDNGFVIKASSKQMQMEYRYDDQGYPLGKTTKSNDKTLSVSATPSTDPIKKLDYTAVTLLNNQRVGNVKQSCEYDSHANPVDCQLIIVDEGVKPAVERVYTIKNTIDYY,not soluble
6,MIFEVPIDHFPASSQQVSKTREHKPLRLSTVSLHSKEVNAAVAPLSPSVRRSQFNFSSEVTKSALPKVRASIPPLKRALTSPALPVQHLNLNLVRKGSNPSSQTSRNNSVTDLLKSELFKMPSRLLSTAVSLHQLA,not soluble
7,MIFMNMVNRERELQALKKRLSSNDLELIIIYGRRRIGKTFLIINAVNGYDFIYYLATEKNNLRKFKELTESKYEDIKYVKEDWEAIFHYLRDKIIIIDEFPYMIKEDESILSTFQKIVDETLKGSKTKLILLGSSISMMEDAISYKSPLYGRRTASIELKELKFKDLKGFNFSLIDAIHVYGFAGGVPFYLTKAKTPFLKWINAELKEVDSFIKDEIDFMLRYEFSEIGTYKEILHAISSGKNTLGEIKDFVRISGDVSSYLNKLEKIGIIGKEFPYKMKKGARYYIKDNFTLFWFTFIYPNLSLIEEGIYEIKEDEYNVYLGRIFEKIAREYVEDVYKVKVERLWFKDVEIDIYGDGIAGECKWSEGINGEKVLYELKRKVEDLGLDVKKYIIFAKSFSKTNEEAEFIDLKKLEQWYRTLEHHHHHH,soluble
8,MIHVILLAAGYSSRFGSNKLLHIVDGTPMYRHALETAEQFRQRYCCEPVRLIFVTAYDDIGKQLREKDGFCLFGAAKAGNTAGRDLVVMNPNSGLGISHSIALGVKAAGADRFQEDDSLMFMVCDQPWLTPGDLLNLAACFKRSGKSIGCMAYGEQTGNPVLFSAVYREELLGLRGDTGGKAIVRRHPKEVCLCPVSNPRALEDMDELQ,not soluble
9,MIILEKEQKEPNRLIKEKSPYLLQHAYNPVDWYPWGEEAFEKARKENKPVFLSIGYSTCHWCHMMAHESFEDEEVAGLMNEAFVSIKVDREERPDIDNIYMTVCQIILGRGGWPLNIIMTPGKKPFFAGTYIPKNTRFNQIGMLELVPRIKEIWEQQHEEVLDSAEKI,not soluble
10,MIIPMNNKHPLPTPLVSIIIPVYNVEKYLYRCVKSILSQDYYDYEIILVDDGSTDGSGMICDELTEQHGHISVIHKPNGGQGSARNAGLNHAKGKYIWFIDSDDYISPHSLSVIMSQITQGDFDALFFPYIKSNGNILIGEAVGKYHAGVYRGQQLLLEGLVNMSMCTIVSLRSRWIDNRIFFREDIHFEDFEINPRVLKFLERAIFLDSNIIPYIYYTRLGSTMNQLDPQKRMRQTEDFLRIEKSWKEWFNLDSPEPNSYDMLMLRTGTNMLHRNLLNFVRNSNFSISTKLKLYAQYRKKGVFSWFYNGYRRDPYVGCTSVRVFWNTIGRSYILFSLFSIVEEIWKKIRK,not soluble
11,MIISDVLYGEFEVDQVVEELISSKSMQRLKGIHQNGASYLMNEKWNVTRFDHSVGVMLLVKKLGGSVKEQIASLLHDVSHTAFSHVIDYVFDNEDESYHEEIFSSVVKNSEIPAILAKHGYNYEDILLDDSKWTLLERSAPELCADRVDYTLRDMYTYGYISLEEVHRFLEDIIAVEGKMVVQSVEMAEWFTETYYKEVIDFFMKPMNIYGNDMLAKTLKLSLHKKVIHADDFLLEDEELISKLQQCNDPEVEALLSKVHPNVKVKEDRNDYDLHQKNKVRLIDPPLLREGKIVQSSVVSENIRQISDIAYEKAVRGMYVKVISN,not soluble
12,MIISTDLQLLISPMQWDQVASEIAQQLSAVGYNVTDIRAEVIDLTCEPDNMLVNQWQQEHGTIPTSEQLHRVVITGEFDGELRKATECVVRQLPEGSYWYGTSLVGEIEPSVTAACAWQADV,not soluble
13,MIITIPIKNQKDIGTPSDSVVVLGYFDGIHKGHQELFRVANKAARKDLLPIVVMTFNESPKIALEPYHPDLFLHILNPAERERKLKREGVEELYLLDFSSQFASLTAQEFFATYIKAMNAKIIVAGFDYTFGSDKKTAEDLKNYFDGEVIIVPPVEDEKGKISSTRIRQAILDGNVKEAGKLLGAPLPSRGMVVHGNARGRTIGYPTANLVLLDRTYMPADGVYVVDVEIQRQKYRAMASVGKNVTFDGEEARFEVNIFDFNQDIYGETVMVYWLDRIRDMTKFDSVDQLVDQLKADEEVTRNWS,soluble
14,MIKIKAIERKAGFGKTSKTLWYPAIHLHSDVKFEEFIELVSDETTVSSADIKAVFDRAAKVLIRLLQDGKSIDCGDMGTYRPSITAKAGSGVDSADKVTVELVDKAKVIYTPRMKVKTALKGVRMERAERVLDVPYASSIKPNENNSGGSSSSDNNGHAGL,not soluble
15,MIKIVTDNFLYEKEKVLALRYMYDSAKKPGITIITVTNKQKYIKNIMDNFRRCLYPKKEFIIILNDTKLQTSLYKNYFSKTKNLKLFKVDSSYSLGECLNLAISKSNYNYIAKMDDDDYYGSHYILDSMNAFNYTDASIIGKATHFIYFEDRTLLNLWCQGNENTYATSVAGATFVMKKSIFNKVKFNSLNNGEDIDLLSQCNNLGIKIYSCSKFNYVYNRHASPDNHSWKISNDLLVKRSIKLCITKSYKRIVHILEHHHHHH,not soluble
16,MIKIYNRKTKAYDVEQVAGLKYINWSYASPIGKSFLELFIKKKMFSKLYGNFCDSSLSKKKIKAFIDEFNIDMSLCNKNIDEFENFNDFFARTLTPEARPIDYSENILISPGDGRLSAFENIDLDKVVQIKGYTYSLKELIDDPKVAEEFEGGTCLILRLCPTDYHRFHFVDSGTCSESKKISGFYYSVNPIALNNVSELFCKNKREWSIFNSDNFGEILHVEVGATCVGTILQTYSPEKRVKKGEEKGYFKFGGSTTILFFKKDTIKIDSDIVEQTKLGFETKVNMGETIGHKLEHHHHHH,soluble
17,MIKNNIKHTWYFGHPQQLVWDYLTKPELLSQWLMESDFQPVAGHTFMFNTKPKVKVGFDGLIYCQVLKVQPDHELEHHHHHH,soluble
